These are literature values, as cited in patent US20230042670A1, “Hypoparathyroidism Treatment” (Ascendis Pharma Bone Diseases A/S, priority 2020, published 2023).

The conditions of series [1]: in vivo.
The test system of series [2] is patients with hypoparathyroidism.

Take “PTH(1-84): short acting PTH molecule, approved drug for hypoparathyroidism; PTH 1-84, SEQ ID NO: 1”: the half-life (as a rule, the time needed for the level to fall by half in the phase considered) in series [1] is approximately 3 h. For the same substance, the “clinical episodes of hypercalcemia” value in series [2] (on treatment versus placebo, 24 weeks) was “numerical increase”. In series [2] (versus placebo, 24 weeks), the “clinical episodes of hypocalcemia” value is reported as “no significant difference” and the urinary calcium excretion entry is recorded as “no significant difference”. The “patients achieving the primary endpoint (50% or greater reduction in daily oral calcium and active vitamin D while maintaining serum calcium)” value in series [2] (week 24, 50 μg per day titrated up to 100 μg) is 53%.
